For this experiment, the target named is SARS-CoV-2 antigen (nucleocapsid protein) (SARS-CoV-2; strain of the recombinant …, UniProt P0DTC9). Kind of experiment: ELISA. (ELISA stands for enzyme-linked immunosorbent assay.)

The values below come from publication PMC8770391 (Biosensors & Bioelectronics, 2022).

B1: detection antibody against the SARS-CoV-2 antigen (antibody, V domains shown)
VH: EVQLVESGGGLVQPGGSLRLSCAASGFTFSTYAMSWVRQAPGKGLEWVSGITGSGGATDYADSVKGRFTISRDNSKNTLYLQMNSLRAEDTAVYYCARINYRAVWGMDYWGQGTLVTVSS
VL: DIQMTQSPSSLSASVGDRVTITCRASQNVSSYLAWYQQKPGKAPKLLIYGASNLASGVPSRFSGSGSGTDFTLTISSLQPEDFATYYCQQGANAPLTFGQGTKVETK
As for B1, the dissociation constant Kd amounted to 0.66 nM.

B2: reporter antibody against the SARS-CoV-2 antigen (antibody, V domains shown)
VH: EVQLVESGGGLVQPGGSLRLSCAASGFTFANNAMSWVRQAPGKGLEWVSGINGYDGDTYYADSVKGRFTISRDNSKNTLYLQMNSLRAEDTAVYYCARTYYSYAMDYWGQGTLVTVSS
VL: DIQMTQSPSSLSASVGDRVTITCRASQNISSYLAWYQQKPGKAPKLLIYWASNLASGVPSRFSGSGSGTDFTLTISSLQPEDFATYYCQQGAQIPLTFGQGTKVEIK
As for B2, the Kd amounted to 0.69 nM.

A word on the Kd: it is the concentration at which binding is half-saturated.
